Assay: yeast display, Sf9 membrane polyspecificity reagent, FACS + sequencing; frameworks hold sequencing errors
How it was run: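 Genes from sorted yeast were amplified by colony PCR, read by MiSeq 2 × 250 sequencing and filtered on CDR length. These cells carried a synthetic nanobody library in Saccharomyces cerevisiae BJ5465 and were sorted by FACS into low and high (top ~1%) gates on anti-HA and streptavidin fluorescence. Polyreactivity is labelled according to the gate of origin.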

| Sequence | polyreactivity (PSR sort gate) |
| --- | --- |
| QVQLVESGGGLVQAGGSLRLSCAASGRIFDYNSMGWSRPAPGKDRELVASITQRGDIPYYADSVKGRFTSSRDNAKNTVFLQMNSLNPDETAVYYGNADGVLVWVLPYVLYTGDYWGQGTQVTVSS | low polyreactivity |
| QVQLVESGGGLVQAGGSLRLSCAASGRIFDYNVMGWYRQAPGKERELVAGISSGGSTYYADSVKGRFTISRDNAKNTVYLQMNSLKPEDTEVYYCAARGRPYRGYGYWGQGTQVTVSS | high polyreactivity |
| QVQLVESGGGLVQAGGSLRLSCAASGRIFDYYAMGWYRQAPGKERELVARITSGGTTNYADSVKGRFTISRDNAKNTVYLQMNSLKPEDTAVYYCNAQDYSDPLQMDYWGQGTQVTVSS | low polyreactivity |
| QVQLVESGGGLVQAGGSLRLSCAASGRIFDYYAMGWYRQAPGKERELVASISRSGGSTYYADSVKGRFTISRDNAKNTVYLQMNSLKPEDTAVYYCAARRGYYYGRVGYWGQGTQVTVTS | high polyreactivity |
| QVQLVESGGGLVQAGGSLRLSCAASGRIFDYYTMGWYRQAPGKERELVAAINWSGGSTYYADSVKGRITISRDKAKNTVYLQMNSLKPEDTAVYYCATLSYGREYGYWGQGTQVTVSS | low polyreactivity |
| QVQLVESGGGLVQAGGSLRLSCAASGRIFDYYTMGWYRQAPGKERELVAAISVRGGSTYYADSVKGRFTNSRDNAKNTVYLQMNSLKPEDTAVYYCAARSWRHRTYYYWGQGTQVTVSS | high polyreactivity |
| QVQLVESGGGLVQAGGSLRLSCAASGRIFEEYVMGWYRQAPGKERELVAAISFSGSRTYADSVKGRFTISRDNAKNTVYLQMNSLKPEDTAVYYCAADPSISYDYWGQGTQVTVSS | low polyreactivity |
| QVQLVESGGGLVQAGGSLRLSCAASGRIFEGYAMGWYRQAPGKEELVAAITSDASTYYADSVKGRFTISRDNAKNTVYLQMNSLKPEDTAVYYCAADTYDNDYYYWGQGTQVTVSS | high polyreactivity |
| QVQLVESGGGLVQAGGSLRLSCAASGRIFEPYAMGWYRQAPGKERELFAAITSGGSTDYADSVKGRFTISRDNAKNTVYLQMNSLKPEDTAVYYCAARVTYGGIPARQIYDYWGQGTQVTVSS | low polyreactivity |
| QVQLVESGGGLVQAGGSLRLSCAASGRIFERYAMGWYRQAPGKERELVAAISWSGGSTYYADSVKGRFTISRDNAKNTVYLQMNSLKPEDTAVYYCAARKYRSFRQRTGDYWGQGTQVTVSS | high polyreactivity |
| QVQLVESGGGLVQAGGSLRLSCAASGRIFEVYAMGWYRQAPGKERELVARISDGGGSTYYADSVKGRFTISRDNAKNTVYLQMNSLKPEDTAVYYCAAGGDLRLDRRFAFVSRGDYWGQGTQVTVSS | low polyreactivity |
| QVQLVESGGGLVQAGGSLRLSCAASGRIFFENTMGWYRQAPGKERELVAAISSSGTTNYADSVKGRFTISRDNAKNTVYLQMNSLKPEDTAVYYCNAVLHGEQVGKYIAYVYWGQGTQVTVAS | low polyreactivity |
| QVQLVESGGGLVQAGGSLRLSCAASGRIFFGNTMGWSRQAPGKERELVAVIDRSGGTTYYADSVKGRFTSSRDNAKNTVYLQMNSLKPEDTAVYYCAAIRRQKGLWDYYYWGQGTQVTVST | low polyreactivity |
| QVQLVESGGGLVQAGGSLRLSCAASGRIFFKYAMGWYRQAPGKERELVAAISSSGGRTSYADSVKGRFTISRDNAKNTVYLQMNSLKPEDTAVYYCNVKPSARGSPLYDYWGQGTQVTVSS | high polyreactivity |
| QVQLVESGGGLVQAGGSLRLSCAASGRIFFLYAMGWYRQAPGKERELVAAITKSGGSTYADSVKGRFTISLDNAKNTVYLQMNSLKPVDTAVYYCATENTECRDSGYIVKYGSDYWGQGTQVTVSS | low polyreactivity |
| QVQLVESGGGLVQAGGSLRLSCAASGRIFFNYAMGWYRQAPGKERELVAAIRGGGSTYADSVKGRFTISCDNAKNTVYLQMNSLKPEDTAVYYCAARYSGSPYHTRRYYYWGQGTQVTVSS | high polyreactivity |

| Sequence | polyreactivity (PSR sort gate) |
| --- | --- |
| QVQLVESGGGLVQAGGSLRLSCAASGRIFFPYAMGWYRQAPGKERELVAAINYSGGSTYYADSVKGRFTISRDNAKYTVYLQMNSLKPEDTAVYYCAKEYGKAYDYWGQGTLVTVSS | high polyreactivity |
| QVQLVESGGGLVQAGGSLRLSCAASGRIFFRNAMGWYRQAPGKDRELVAAITWNGGSTYYADSVKGRFTISRDNAKNTVYLQMNSLKPEDTAVYYCATKTLSRTRTYYYWGQCTQVTVSS | high polyreactivity |
| QVQLVESGGGLVQAGGSLRLSCAASGRIFFRNAMGWYRQAPGKERELVAAISKSGTRTYYADSVKGRFTISRDNAKNTVYLQMHSLKPEDTAVYYCNALLRDCGTYAGDDYWGQGTQVTVSS | high polyreactivity |
| QVQLVESGGGLVQAGGSLRLSCAASGRIFFRYAMGWYIQAPGKEREFVAAISGSAGSTYYADSVKGRFKISRDNAKNTVYLQMNSLKPEDTAVYYCAARKAKVSNGLKYDYWGQGTQVTVSS | low polyreactivity |
| QVQLVESGGGLVQAGGSLRLSCAASGRIFFRYDLGWYRQAPGKERELVAAISGGDRTSYADSVKGRFTISRDNAKITVYLQMNSLKPEDTAVYYCAGKRRSGEYYYWGQGTQVTVSS | low polyreactivity |
| QVQLVESGGGLVQAGGSLRLSCAASGRIFFSNAMGWYRQAPGKERELVASITGGDDTNYADSVKGRFTISRDNAKNTVYLQMNSLKPEDTAVYYCAARAIPSYRWVYRFAPKYDYWGQGTQVTVSS | low polyreactivity |
| QVQLVESGGGLVQAGGSLRLSCAASGRIFFSTVMGWDRQAPGKERELVAAISWSGGSTYYADSVKGRFTISRDNAKNTVYLQMNSLKPEDTAVYYCNRLSASVQYGYWGQGTQVTVSS | high polyreactivity |
| QVQLVESGGGLVQAGGSLRLSCAASGRIFFTNAMGWYTQAPGKERELVAAISKSGARTYYADSVKGRFTISRDNAKNTVYLLMNSLKPEDTAVYYCAADVCVYGYDYWGQGTQVTVSS | high polyreactivity |
| QVQLVESGGGLVQAGGSLRLSCAASGRIFFTYVMGWYRQAPGKERELVATIRVSGGSTYYADSVKGRFTISRDNAKNTVYLQMNSLKPEDTAVYYCAASGASWSLHYAGDYWGQGTQVTVSS | high polyreactivity |
| QVQLVESGGGLVQAGGSLRLSCAASGRIFFVYAMGWYRQAPGKERELVAAISVSDVSTSYADSVKGRFTISRDNAKNTVYLQMNSLKPEDTAVYYFNAGFRFYTYSRIAGEDYGGQGTQVTVSS | low polyreactivity |
| QVQLVESGGGLVQAGGSLRLSCAASGRIFFVYAMGWYRQAPGKERELVAHIPSGGSTSYADSVKGRFTISRDNAKNTDYLQMNSLKPEDTAVYSCAARYLGYIYVYYHYTDDYWGQGTQVTVSS | low polyreactivity |
| QVQLVESGGGLVQAGGSLRLSCAASGRIFFVYAMGWYRQAPGKERELVASITGGGSTNYADSVKGRFTISRDNAKNTVYLQMNSLKPEDTAVYYCGADIHSTRVFPEYPSGYDYWGQGTQVTVSS | low polyreactivity |
| QVQLVESGGGLVQAGGSLRLSCAASGRIFFWNALGWYRQAPGKEREFVATISWNDAITYYADSVKGRFTISRDNAKNTVYLQMNSLKPEDTAVYYCNVDPKIVFSFGYDYWGQGTQVTVSS | low polyreactivity |
| QVQLVESGGGLVQAGGSLRLSCAASGRIFFYAMGWYRQAPGKERELVASITTSGTSTYYADSVKGRFTISRDNAKNTVYLQMNSLKPEDTAVYYCNARVRYTVGPLSSLDGEYWGQGTQVTVSS | low polyreactivity |
| QVQLVESGGGLVQAGGSLRLSCAASGRIFFYNAMGWYRQAPGKERELVAAIDSGSSTYYADSVKGRFTISRDNAKNTVYLQMTSLKPEDTAVYYCAADGRRWYTEYDYWGQGTQVTVSS | low polyreactivity |
